Measurements from patent US20050153923A1, “Targeted drug delivery using EphA2 or EphA4 binding moieties” (priority 2003, published 2005).
Entries after “also recorded” stand apart in the source; their conditions may differ.

Key:
EphA2-Fc = target: T1, EphA2-Fc (Homo sapiens, UniProt P29317); assay: Competitive ELISA: inhibition of labeled EA2 binding to EphA2-Fc; details: unlabeled antibody, increasing concentrations; FIG. 1
T1 construct: consisted of the extracellular domain of human EphA2 linked to human immunoglobulin
T1 sequence (P29317 24-537 limits assumed): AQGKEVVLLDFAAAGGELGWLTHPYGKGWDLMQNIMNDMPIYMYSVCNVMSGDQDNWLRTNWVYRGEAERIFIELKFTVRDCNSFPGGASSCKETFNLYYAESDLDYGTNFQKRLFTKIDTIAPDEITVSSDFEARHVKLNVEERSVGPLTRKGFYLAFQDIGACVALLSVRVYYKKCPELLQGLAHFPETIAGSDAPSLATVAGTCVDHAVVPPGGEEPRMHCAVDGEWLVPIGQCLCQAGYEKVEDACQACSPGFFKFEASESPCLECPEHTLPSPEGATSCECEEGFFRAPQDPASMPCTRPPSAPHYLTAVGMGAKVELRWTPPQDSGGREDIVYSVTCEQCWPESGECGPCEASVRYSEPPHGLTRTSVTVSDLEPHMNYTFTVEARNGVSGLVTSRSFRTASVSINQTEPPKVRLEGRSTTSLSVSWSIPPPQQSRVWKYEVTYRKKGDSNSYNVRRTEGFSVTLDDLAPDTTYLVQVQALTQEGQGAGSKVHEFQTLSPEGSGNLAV
Description: The ability of labeled EA2 monoclonal antibody to bind EphA2-Fc was assayed by competitive ELISA in presence of either unlabeled monoclonal antibodies EA2 or Eph099B-208.261. Ratios of unlabeled to labeled antibody used in the assay are indicated on the x-axis.
Supernatants from bulk culture hybridomas were screened for immunoreactivity against EphA2 (Table 9, column 4) using standard molecular biological techniques (e.g., ELISA immunoassay). Supernatants were further screened for the ability to inhibit an EphA2 monoclonal antibody (EA2; ATCC deposit no. PTA-4380; see co-pending U.S. patent application Ser. No. 10/436,783, entitled “EphA2 Agonistic Monoclonal Antibodies and Methods of Use Thereof” filed May 12, 2003) from binding to EphA2. […] Additionally, many of the other antibodies could inhibit EA2 binding to EphA2 as well (Table 9, column 3).

[1] = system: MDA-MB-231 breast cancer cells; assay: Tumor growth, MDA-MB-231 cells implanted orthotopically into athymic mice; format: in vivo; details: 6 mg/kg i.p. twice a week for 3 weeks; FIG. 7A
Description: Total tumor volume was determined after sacrifice.

MCF-7^EphA2 cells = assay: Soft agar colonization of MCF-7^EphA2 cells; format: cell-based; details: TAM 1 μM, EA2 10 μg/ml
Description: (B) MCF-7 (circles) or MCF-7^EphA2 cells (squares) were implanted into the mammary fatpad (n=15 mice per group) in the presence of supplemental estrogen.
MCF-7^EPhA2 cells were incubated in the presence of 3 μg/ml of EA2 for the time indicated prior to sample extraction and Western blot analyses with an EphA2-specific antibody (D7). (B) The membrane was stripped and re-probed with a β-catenin-specific antibody as a loading control.
Growth assays were conducted as follows. MCF-7^neo (control cells) or MCF7^EphA2 cells were seeded in 96-well plates. […] Colony formation in soft agar was performed as previously described (Zelinski et al., 2001, Cancer Res. 61: 2301-6) and scored microscopically, defining clusters of at least three cells as a positive. The data represent the average of ten separate high-power microscopic fields from each sample and representative of at least three separate experiments. Error bars represent the standard error of the mean of at least three different experiments as determined using Microsoft Excel software.
(§1) Growth MCF-7^EphA2 cells which had decreased EphA2 expression levels was assayed in soft agar.

EphA2 = EphA2 (Homo sapiens, UniProt P29317); assay: EphA2 expression in MCF-7^EphA2 cells after EA2 treatment (Western blot); format: cell-based
Chain of EphA2 (P29317 24-976): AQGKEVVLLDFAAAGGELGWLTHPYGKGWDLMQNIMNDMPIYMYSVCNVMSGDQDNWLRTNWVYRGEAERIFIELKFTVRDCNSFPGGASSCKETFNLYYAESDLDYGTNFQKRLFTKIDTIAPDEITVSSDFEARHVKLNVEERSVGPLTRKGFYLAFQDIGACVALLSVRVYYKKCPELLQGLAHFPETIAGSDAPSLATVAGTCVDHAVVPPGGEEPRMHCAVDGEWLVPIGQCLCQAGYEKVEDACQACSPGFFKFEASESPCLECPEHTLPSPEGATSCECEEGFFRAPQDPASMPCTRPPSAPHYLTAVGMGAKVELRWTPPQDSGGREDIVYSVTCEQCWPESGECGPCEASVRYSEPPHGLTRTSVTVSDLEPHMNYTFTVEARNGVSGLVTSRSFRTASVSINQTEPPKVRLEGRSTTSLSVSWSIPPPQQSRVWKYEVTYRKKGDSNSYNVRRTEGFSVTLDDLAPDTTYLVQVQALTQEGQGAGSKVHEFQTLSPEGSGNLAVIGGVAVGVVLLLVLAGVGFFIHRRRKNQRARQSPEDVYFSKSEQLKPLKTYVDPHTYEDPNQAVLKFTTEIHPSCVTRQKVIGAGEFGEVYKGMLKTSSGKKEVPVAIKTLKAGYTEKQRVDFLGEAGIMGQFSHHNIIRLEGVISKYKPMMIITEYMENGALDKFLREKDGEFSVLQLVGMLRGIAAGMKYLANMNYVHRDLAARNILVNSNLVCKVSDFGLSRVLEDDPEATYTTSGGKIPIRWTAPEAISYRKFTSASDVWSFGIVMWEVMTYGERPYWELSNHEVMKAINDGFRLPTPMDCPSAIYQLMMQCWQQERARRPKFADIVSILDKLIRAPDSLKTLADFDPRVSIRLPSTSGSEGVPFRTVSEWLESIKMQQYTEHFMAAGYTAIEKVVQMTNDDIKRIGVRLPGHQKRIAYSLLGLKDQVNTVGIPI
Description: MCF-7^EPhA2 cells were incubated in the presence of 3 μg/ml of EA2 for the time indicated prior to sample extraction and Western blot analyses with an EphA2-specific antibody (D7).
Estrogen-sensitive breast cancer cells, MCF-7 cells, were transfected with and stably overexpressed human EphA2 (MCF-7^EphA2) (pNeoMSV-EphA2 provided by Dr. T. Hunter, Scripps Institute). Western blot analyses confirmed the ectopic overexpression of EphA2 in transfected cells relative to matched controls (data not shown).
as §1

[2] = target: T2, EphA2-Ephrin A1-Fc-EA2 complex (Homo sapiens, UniProt P29317); assay: Displacement of biotinylated EA2 from EphA2-Ephrin A1-Fc complex by unlabeled competitor; format: binding; details: biotinylated EA2 10 μg/ml; FIG. 18B
T2 construct: consisting of the extracellular domain of EphA2 linked to human IgG1 constant region (EphA2-Fc)
T2 sequence (P29317 24-537 limits assumed): as the sequence (P29317 24-537 limits assumed) above
T2 sequence (P20827 19-182 partner limits assumed): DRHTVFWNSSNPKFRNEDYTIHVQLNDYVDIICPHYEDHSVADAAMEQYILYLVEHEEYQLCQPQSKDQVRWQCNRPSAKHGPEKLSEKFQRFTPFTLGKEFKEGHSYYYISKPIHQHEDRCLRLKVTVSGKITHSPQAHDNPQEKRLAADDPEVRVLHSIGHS
Description: (A) EphA2-Fc was incubated with and bound to immobilized Ephrin A1-Fc. Labeled Ephrin A1-Fc (black), EA2 (white) or Eph099B-233.152 (grey) was incubated with the EphA2-Ephrin A1-Fc complex and amount of binding was measured. (B) EphA2-Fc was incubated with and bound to immobilized Ephrin A1-Fc. Labeled EA2 was then incubated with the EphA2-Ephrin A1 complex. Unlabeled competitor was incubated with EphA2-Ephrin A1-EA2 complex in the indicated amount. Competitors were Ephrin A1-Fc (black), EA2 (white) or Eph099B-233.152 (grey).
The EphA2-Ephrin A1-Fc complex was prepared as described above. Biotinylated EA2 (10 μg/ml) was then incubated with the complex for 30 min. Unlabeled competitor was incubated with EphA2-Ephrin A1-Fc-EA2 complex in the indicated amount. Unlabeled EA2 could displace the labeled EA2 at concentrations of 100 ng/ml or greater.

Time EphA2 remained undetectable after EA2 treatment (EphA2; 3 μg/ml EA2): ≥ 24 h
Concentration of unlabeled competitor displacing labeled EA2 [2]: ≥ 100 ng/mL
B1: EA2: EphA2 agonistic monoclonal antibody; hybridoma strain EA2.31, ATCC PTA-4380 (antibody, V domains shown)
VH: DVKLVESGGGLVKPGGSLKLSCAASGFTFSSYTMSWVRQTPEKRLEWVATISSGGTYTYYPDSVKGRFTISRDNAKNTLYLQMSSLKSEDTAMYYCTREAIFTYWGQGTLVTVSA
VL: DIKMTQSPSSMYASLGERVTITCKASQDINNYLSWFQQKPGKSPKTLIYRANRLVDGVPSRFSGSGSGQDYSLTISSLEYEDMGIYYCLKYDEFPYTFGGGTKLEIK
Competition with labeled EA2 for binding to EphA2-Fc (EphA2-Fc): could decrease the amount of labeled EA2 binding to EphA2-Fc
Tumor growth, MDA-MB-231 implanted orthotopically [1]: inhibited
Soft agar colonization response / tamoxifen sensitivity, MCF-7^EphA2 cells (MCF-7^EphA2 cells; 1 μM 17β-estradiol, FIGS. 11A, 13C (11A also MCF-7)): restored a phenotype that was comparable to control MCF-7 cells; also recorded: decreases malignant growth; also recorded: increased the sensitivity of MCF-7^EphA2 cells to tamoxifen
Inhibition / decrease of soft agar colonization, MCF-7^EphA2 cells (MCF-7^EphA2 cells; 14 days): 19%
EphA2 activation and expression level after EA2 treatment (EphA2; 3 μg/ml EA2, FIG. 13A): induced EphA2 activation and subsequent degradation; also recorded: Decreased levels of EphA2 expression were observed within two hours
